Columns and labels:
HRP-labeled human S100A7 = HRP-labeled human S100A7 (UniProt P31151); assay: ELISA; conditions: His-tagged TdfJ on NTA-coated 96-well plate; absorbance at 450 nm; parent: est. 100; read off a plot
[1] = biological target: His-tagged TdfJ K261P/R262P (purified) (Neisseria gonorrhoeae); assay: SPR; His-tagged TdfJ (89 μg/mL) immobilised on Ni-NTA sensor chip, free NTA blocked with His-tagged streptavidin; S100A7 injected at 1, 10, 50, 100, 500 nM, 20 μL/min; PBS pH 8.0; OpenSPR XT; steady-state, single-site fit (EC50 analysis setting)
[2] = biological target: His-tagged wild-type TdfJ (purified) (Neisseria gonorrhoeae); assay: as above
[3] = biological target: transferrin (Homo sapiens) (UniProt P02787); conditions: cited from earlier work
Chain of UniProt P02787 (P02787 20-698): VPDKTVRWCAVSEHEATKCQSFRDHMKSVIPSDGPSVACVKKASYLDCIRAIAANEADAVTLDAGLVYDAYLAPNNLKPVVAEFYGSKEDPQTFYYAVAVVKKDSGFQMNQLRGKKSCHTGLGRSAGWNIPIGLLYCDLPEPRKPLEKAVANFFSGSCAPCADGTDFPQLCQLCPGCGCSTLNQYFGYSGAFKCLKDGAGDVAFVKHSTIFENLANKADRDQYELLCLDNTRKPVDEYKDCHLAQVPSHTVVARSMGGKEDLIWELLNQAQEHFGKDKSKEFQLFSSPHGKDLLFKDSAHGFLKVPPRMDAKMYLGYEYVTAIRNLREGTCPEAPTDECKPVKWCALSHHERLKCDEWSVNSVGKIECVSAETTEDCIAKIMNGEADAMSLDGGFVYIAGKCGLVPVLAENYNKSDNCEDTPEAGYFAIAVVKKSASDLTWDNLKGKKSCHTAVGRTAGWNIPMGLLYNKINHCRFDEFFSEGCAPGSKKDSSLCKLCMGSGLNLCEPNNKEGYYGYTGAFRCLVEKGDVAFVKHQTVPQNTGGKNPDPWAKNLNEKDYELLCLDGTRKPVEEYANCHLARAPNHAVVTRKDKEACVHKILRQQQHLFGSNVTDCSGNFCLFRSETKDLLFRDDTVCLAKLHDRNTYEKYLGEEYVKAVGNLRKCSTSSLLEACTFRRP

| Substance | percent of parent (% of Wildtype) (HRP-labeled human S100A7) | also measured |
| --- | --- | --- |
| His-tagged wild-type TdfJ (purified) K256E | 87 |  |
| His-tagged wild-type TdfJ (purified) K261P; R262P | 3 |  |
| His-tagged wild-type TdfJ (purified) L266P | 74 |  |
| His-tagged wild-type TdfJ (purified) Q265P | 80 |  |
| His-tagged wild-type TdfJ (purified) Q265P; L266P | 20 |  |
| His-tagged wild-type TdfJ (purified) R262P | 79 |  |
| Human S100A7 (from UniProt P31151 1-101) (natural protein) |  | SPR response at equilibrium at 500 nM S100A7 [1]: 325 RU; Kd [2]: 41 nM; SPR response at 1 nM S100A7 [2]: 220 RU; SPR response at 500 nM S100A7 [2]: 900 RU |
| TbpA (from UniProt Q01996) |  | Kd [3]: 10 nM |

Source: paper PMC9426574
